For one assay, the target named is T1, GDF15 (Homo sapiens (Human), UniProt Q99988 30-308).
T1 sequence: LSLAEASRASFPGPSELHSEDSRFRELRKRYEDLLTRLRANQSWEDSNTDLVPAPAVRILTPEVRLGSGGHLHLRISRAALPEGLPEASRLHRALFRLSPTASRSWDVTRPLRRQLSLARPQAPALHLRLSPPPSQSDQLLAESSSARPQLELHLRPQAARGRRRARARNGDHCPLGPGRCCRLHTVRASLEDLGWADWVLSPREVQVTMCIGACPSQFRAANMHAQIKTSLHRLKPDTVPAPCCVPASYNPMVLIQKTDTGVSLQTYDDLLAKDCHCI
Briefly: cell-based or functional assay.

In the next assay the target is T2, GDF11 (UniProt O95390 299-407).
T2 construct: Also the GDF-11 ligand of the ActRIIB/SMAD reporter assay
Briefly: Octet BLI, IgG on tip, avid. For orientation: Biolayer interferometry detects binding as a change in optical thickness at a sensor tip.

For a further assay, the target named is T3, GDF10 (UniProt P55107 369-478).
T3 sequence (looked up): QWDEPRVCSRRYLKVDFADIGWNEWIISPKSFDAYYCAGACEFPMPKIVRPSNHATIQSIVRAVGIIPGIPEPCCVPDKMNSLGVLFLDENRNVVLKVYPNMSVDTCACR
The experiment in a line: Octet BLI, IgG on tip, avid.

The target in the next assay is GDF8 (UniProt O14793 267-375). The experiment in a line: Octet BLI, IgG on tip, avid.
The target of the next assay is T4, Human Activin B (human, UniProt P09529 293-407).
T4 construct: Also used for the Activin B ligand of the ActRIIB/SMAD reporter assay, where the species is not restated
T4 sequence (looked up): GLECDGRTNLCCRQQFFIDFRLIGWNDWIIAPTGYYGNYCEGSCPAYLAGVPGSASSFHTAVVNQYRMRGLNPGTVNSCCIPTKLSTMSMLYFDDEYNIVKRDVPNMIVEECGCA
The experiment in a line: Octet BLI, IgG on tip, avid.

Another assay deals with T5, Human BMP9 (human, UniProt Q9UK05 320-429).
T5 sequence (looked up): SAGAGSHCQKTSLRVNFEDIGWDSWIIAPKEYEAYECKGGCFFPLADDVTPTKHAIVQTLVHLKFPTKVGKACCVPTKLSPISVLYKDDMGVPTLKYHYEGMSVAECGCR
Briefly: Octet BLI, IgG on tip, avid.

Another assay addresses T6, Human BMP10 (human, UniProt O95393 317-424).
T6 sequence (looked up): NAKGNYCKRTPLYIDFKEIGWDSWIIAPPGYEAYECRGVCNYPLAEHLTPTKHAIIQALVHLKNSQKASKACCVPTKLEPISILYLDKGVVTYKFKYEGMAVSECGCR
The experiment in a line: Octet BLI, IgG on tip, avid.

The target in the next assay is T7, Human Activin A Fc (human, UniProt P08476 311-426).
T7 sequence (looked up): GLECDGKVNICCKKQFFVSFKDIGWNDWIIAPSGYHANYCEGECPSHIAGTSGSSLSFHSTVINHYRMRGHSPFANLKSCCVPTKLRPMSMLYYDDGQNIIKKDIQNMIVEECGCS
The experiment in a line: Octet BLI, IgG on tip, avid.

A further assay addresses T8, GDNF (UniProt P39905 78-211).
T8 sequence (looked up): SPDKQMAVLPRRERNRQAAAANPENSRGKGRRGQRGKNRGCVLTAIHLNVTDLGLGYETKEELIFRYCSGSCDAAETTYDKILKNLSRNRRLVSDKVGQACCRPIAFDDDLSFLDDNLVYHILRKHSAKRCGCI
The experiment in a line: Octet BLI, IgG on tip, avid.

Where a chain is given by its changes, count along the chain named.

T2 sequence (O95390 299-407 limits assumed): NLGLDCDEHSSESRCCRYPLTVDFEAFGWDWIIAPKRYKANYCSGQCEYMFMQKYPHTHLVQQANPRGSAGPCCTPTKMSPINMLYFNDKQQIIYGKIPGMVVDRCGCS

B1: Clone J IgG (antibody, V domains shown)
VH: QVQLVQSGAEVKKPGASVKVSCKASGYTFTSYGINWVRQAPGQGLEWMGWIDAYSGSTNYAQKLQGRVTMTTDTSTSTAYMELRSLRSDDTAVYYCARGPGQYADVDVWGQGTMVTVSS
VL: DIQMTQSPSSVSASVGDRVTITCRASQGISSWLAWYQQKPGKAPKLLIYAASSLQSGVPSRFSGSGSGTDFTLTISSLQPEDFATYYCQQANSFPITFGGGTKVEIKR
notes: IgG format
As for B1, the “GDF15 - GFRAL RET pERK IC50 (pM)” value with GDF15 stood at 30.3 pM. Also, in the assay with GDF15, the “GDF15 - GFRAL-RET Luciferase IC50 (pM)” value worked out at 110 pM. Also, the binding result with GDF11, with GDF10, with GDF8, in the assay with Human Activin B, with Human BMP9 and in the assay with Human BMP10 was “no binding (tested: 100 nM)” in each case. The binding result in the assay with Human Activin A Fc is “no binding (tested: 100 nM)”.

B2: Clone O IgG (antibody, V domains shown)
VH: QVQLVQSGAEVKKPGATVKVSCKASGYTFDSLGMSWVRQAPGQGLEWMGYISTYSGDTVYAQKLQGRVTMTTDTSTSTAYMELRSLRSDDTAVYYCARESGQQVSALDPWGQGTLVTVSS
VL: B1 VL with S31R, A91G, N92A, I96L
notes: IgG format
For B2, the “GDF15 - GFRAL-RET Luciferase IC50 (pM)” value with GDF15 was 150 pM. The binding result in the assay with GDF11, with GDF8, with Human Activin B, in the assay with GDNF, with Human BMP9 and with Human BMP10 was “no binding (tested: 100 nM)” throughout. Moreover, the binding result with Human Activin A Fc is “no binding (tested: 100 nM)”. Moreover, binding in the assay with GDF10 was characterised by a dissociation constant (Kd) of 26.7 nM.

B3: Clone K IgG (antibody, V domains shown)
VH: QVQLVQSGAEVKKPGASVKVSCKASGYTFTNEGISWVRQAPGQGLEWMGWISAYTADTFYAQKLQGRVTMTTDTSTSTAYMELRSLRSDDTAVYYCARTRHDTSGLRFDYWGQGTLVTVSS
VL: B1 VL with S30D, A91V, N92H
notes: IgG format
With B3, the “GDF15 - GFRAL RET pERK IC50 (pM)” value with GDF15 is 187 pM. In addition, the “GDF15 - GFRAL-RET Luciferase IC50 (pM)” value with GDF15 was 813 pM. For the same molecule, the binding result in the assay with GDF11, in the assay with GDF10, with GDF8, in the assay with Human Activin B, with Human BMP9 and in the assay with Human BMP10 was “no binding (tested: 100 nM)” throughout. In addition, the binding result in the assay with Human Activin A Fc is listed as “no binding (tested: 100 nM)”. The Kd with GDNF was 333 nM.

B4: Clone P IgG (antibody, V domains shown)
VH: B2 VH with L32Y, M34I, S35H, Y50W, S52T, T53A, Q103T, V104S, D108G
VL: B1 VL with S31R, A91G, N92A, I96L
notes: IgG format
For the molecule B4, in the assay with GDF15, the “GDF15 - GFRAL RET pERK IC50 (pM)” value amounted to 35.6 pM. The binding result with GDF11, with GDF10, with GDF8, with Human Activin B, with Human BMP9 and with Human BMP10 was “no binding (tested: 100 nM)” in each case. Further, in the assay with Human Activin A Fc, the binding result is given as “no binding (tested: 100 nM)”.

B5: Clone T IgG (antibody, V domains shown)
VH: B1 VH with D52T, S57D
VL: B1 VL with N92S, S93Q
notes: IgG format
In the case of B5, the binding result with GDF11, with GDF10, with GDF8, with Human Activin B, with GDNF and with Human BMP9 was “no binding (tested: 100 nM)” in each case. In addition, the binding result with Human BMP10 and with Human Activin A Fc was “no binding (tested: 100 nM)” each time.

B6: Clone S IgG (antibody, V domains shown)
VH: B1 VH with D52T, S57D
VL: B1 VL with M4L, S31P
notes: IgG format
Consider B6, for which the binding result in the assay with GDF11, with GDF10, with GDF8, with Human Activin B, with GDNF and with Human BMP9 was “no binding (tested: 100 nM)” each time. Also, the binding result in the assay with Human BMP10 and in the assay with Human Activin A Fc was “no binding (tested: 100 nM)” in each case.

B7: Clone L IgG (antibody, V domains shown)
VH: B3 VH with T30A, N31S, E32Y, G33D, S35I, Y54L, T55S, A56G, F59V, L106I
VL: B1 VL with S30D, A91V, N92H
notes: IgG format
With B7, the “GDF15 - GFRAL RET pERK IC50 (pM)” value in the assay with GDF15 came out at 13.5 pM. Moreover, the “GDF15 - GFRAL-RET Luciferase IC50 (pM)” value with GDF15 worked out at 274 pM. Further, the binding result with GDF11, with GDF10, in the assay with GDF8, in the assay with Human Activin B, with Human BMP9 and with Human BMP10 was “no binding (tested: 100 nM)” each time. In addition, in the assay with Human Activin A Fc, the binding result is “no binding (tested: 100 nM)”. In the assay with GDNF, this molecule registered a Kd of 229 nM.

B8: Clone H IgG (antibody, V domains shown)
VH: QVQLVQSGAEVKKPGSSVKVSCKASGGTFSSYYISWVRQAPGQGLEWMGGIAPISGTASYAQKFQGRVTITADESTSTAYMELSSLRSEDTAVYYCARGLAYDGYFDLWGRGTLVTVSS
VL: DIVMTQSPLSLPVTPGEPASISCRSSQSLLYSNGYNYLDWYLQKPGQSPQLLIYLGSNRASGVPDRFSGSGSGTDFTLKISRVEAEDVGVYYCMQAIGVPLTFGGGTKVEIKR
notes: IgG format
Regarding B8, the “GDF15 - GFRAL RET pERK IC50 (pM)” value with GDF15 worked out at 254 pM. Further, in the assay with GDF15, the “GDF15 - GFRAL-RET Luciferase IC50 (pM)” value was 200 pM. Further, the binding result with GDF11, with GDF10, with GDF8, in the assay with Human Activin B, with GDNF and with Human BMP9 was “no binding (tested: 100 nM)” each time. Besides, the binding result with Human BMP10 and with Human Activin A Fc was “no binding (tested: 100 nM)” in each case.

B9: Clone M IgG (antibody, V domains shown)
VH: QVQLVQSGAEVKKPGASVKVSCKASGYTFDSYGINWVRQAPGQGLEWMGWISAYSGDTAYAQELQGRVTMTTDTSTSTAYMELRSLRSDDTAVYYCVRDTQYGGSPYWGQGTLVTVSS
VL: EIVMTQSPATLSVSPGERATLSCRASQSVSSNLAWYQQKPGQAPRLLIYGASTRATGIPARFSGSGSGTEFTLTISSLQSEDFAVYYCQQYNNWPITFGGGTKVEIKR
notes: IgG format
As for B9, the “GDF15 - GFRAL RET pERK IC50 (pM)” value in the assay with GDF15 was determined as 88.7 pM. Also, the binding result with GDF11, with GDF10, in the assay with GDF8, with Human Activin B, with Human BMP9 and with Human BMP10 was “no binding (tested: 100 nM)” each time. In the assay with Human Activin A Fc, the binding result is on record as “no binding (tested: 100 nM)”. The molecule also gave a Kd in the assay with GDNF of 31.4 nM.

The Kd is the equilibrium constant for the complex coming apart.

These data come from US20250019427A1 (BYOMASS, published 2025).
